The source of these data is publication PMC12906810, “ZmMYB127 Modulates Maize Kernel Texture and Size by Integrating the Synthesis of Starch, Zein Proteins and Auxin”.

In this series the target is ZmMYB127 (Zea mays (inbred B73), UniProt A0A804N6V3 1-263). Kind of series: EMSA; EMSA with LightShift Chemiluminescent EMSA kit protocol, 25 °C, 30 min, native PAGE; buffer, salt and pH not stated. The note with it: protein: recombinant; tags: GST (N-terminal, pGEX-6T); label: biotin (end); blunt.
ZmMYB127, sequence (A0A804N6V3 entry or part of it): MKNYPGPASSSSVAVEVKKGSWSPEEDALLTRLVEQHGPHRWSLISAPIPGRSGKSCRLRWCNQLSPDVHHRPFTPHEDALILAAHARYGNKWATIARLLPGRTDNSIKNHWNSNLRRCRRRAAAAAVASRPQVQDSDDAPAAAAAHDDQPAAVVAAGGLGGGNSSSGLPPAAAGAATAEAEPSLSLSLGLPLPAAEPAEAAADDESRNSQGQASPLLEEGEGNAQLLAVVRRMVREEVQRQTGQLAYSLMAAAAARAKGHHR

B1: Ae1 promoter WT probe (dsDNA)
DNA 1: GAGAATGAAAGCGAACTGTTGCTCACGGACTCTAAG
DNA 2: CTTAGAGTCCGTGAGCAACAGTTCGCTTTCATTCTC
Consider B1, for which the binding result is on record as “binds”.

B2: Bt1 promoter WT probe (dsDNA)
DNA 1: CACGCGCCGCCATTTCTGTTGCGAATGAGTCCATGG
DNA 2: CCATGGACTCATTCGCAACAGAAATGGCGGCGCGTG
For the molecule B2, the binding result is on record as “binds”.

B3: z1C1 promoter WT probe (dsDNA)
DNA 1: TCTACTAAGCTTGTTCAACCACGAGAAGAATATTAG
DNA 2: CTAATATTCTTCTCGTGGTTGAACAAGCTTAGTAGA
As for B3, the binding result is “binds”.

B4: z1D2 promoter WT probe (dsDNA)
DNA 1: GTTGAAATTGATTGATATCCACAAATTTTGTTAA
DNA 2: TTAACAAAATTTGTGGATATCAATCAATTTCAAC
For the molecule B4, the binding result is on record as “binds”.
